From paper PMC9352680, “A comprehensive thermodynamic model for RNA binding by the Saccharomyces cerevisiae Pumilio protein PUF4”
Residue numbers refer to the chain shown, from its start. Numbers in names are those of the source.

T1: PUF4 RNA-binding domain (Saccharomyces cerevisiae, UniProt P25339 537-888)
T1 sequence: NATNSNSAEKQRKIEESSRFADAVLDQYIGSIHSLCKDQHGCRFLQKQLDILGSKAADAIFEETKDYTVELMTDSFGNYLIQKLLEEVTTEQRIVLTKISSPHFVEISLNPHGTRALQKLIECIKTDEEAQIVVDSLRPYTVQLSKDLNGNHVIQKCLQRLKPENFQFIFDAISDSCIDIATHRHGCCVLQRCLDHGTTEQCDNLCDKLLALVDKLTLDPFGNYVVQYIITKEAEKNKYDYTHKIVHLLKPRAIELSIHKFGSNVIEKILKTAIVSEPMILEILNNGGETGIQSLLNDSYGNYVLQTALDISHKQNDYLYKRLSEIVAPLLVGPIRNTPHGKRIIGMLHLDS

B1: Id_iii_S2_P3E.5_K3.1_C3.3_[T-3A]_H3.1_A3.1_F3.1_T3.2 (ssRNA)
RNA: UUUGAUUAAUAUGAUAUCGUUCUUUCUACUUGUAUAUAUAUUCUUUCUCGAUAUCAUAUUAAUCUUU
B2: Id_iii_S2_P3E.5_K3.1_C3.3_[C-2G]_H3.1_A3.1_F3.1_T3.2 (ssRNA)
RNA: B1 RNA with A28U, C29G
B3: Id_iii_S2_P3E.5_K3.1_C3.3_[C-2T]_H3.1_A3.1_F3.1_T3.2 (ssRNA)
RNA: B1 RNA with A28U, C29U
B4: Id_iii_S2_P3E.5_K3.1_C3.3_[T-1A]_H3.1_A3.1_F3.1_T3.2 (ssRNA)
RNA: B1 RNA with A28U, U30A
B5: Id_iii_S2_P3E.5_K3.1_C3.3_H3.1_A3.1_F3.1_T3.2_[T9A] (ssRNA)
RNA: B1 RNA with A28U, U39A
B6: Id_iii_S2_P3E.5_K3.1_C3.3_H3.1_A3.1_F3.1_T3.2_[A10G] (ssRNA)
RNA: B1 RNA with A28U, A40G
B7: Id_iii_S2_P3E.6_K3.2_C3.3_[T-3A]_H3.2_A3.1_F3.1_T3.2 (ssRNA)
RNA: B1 RNA with G32A
B8: Id_iii_S2_P3E.6_K3.2_C3.3_[C-2T]_H3.2_A3.1_F3.1_T3.2 (ssRNA)
RNA: B1 RNA with A28U, C29U, G32A
B9: Id_iii_S2_P3E.6_K3.2_C3.3_[T-1C]_H3.2_A3.1_F3.1_T3.2 (ssRNA)
RNA: B1 RNA with A28U, U30C, G32A
B10: Id_iii_S2_P3E.6_K3.2_C3.3_[T-1A]_H3.2_A3.1_F3.1_T3.2 (ssRNA)
RNA: B1 RNA with A28U, U30A, G32A
B11: Id_iii_S2_P3E.6_K3.2_C3.3_H3.2_A3.1_F3.1_T3.2_[T9C] (ssRNA)
RNA: B1 RNA with A28U, G32A, U39C
B12: Id_iii_S2_P3E.6_K3.2_C3.3_H3.2_A3.1_F3.1_T3.2_[T9A] (ssRNA)
RNA: B1 RNA with A28U, G32A, U39A
B13: Id_iii_S2_P3E.6_K3.2_C3.3_H3.2_A3.1_F3.1_T3.2_[A10T] (ssRNA)
RNA: B1 RNA with A28U, G32A, A40U
B14: Id_iii_S2_P3E.7_K3.3_C3.3_[T-3G]_H3.3_A3.1_F3.1_T3.2 (ssRNA)
RNA: B1 RNA with A28G, U31A, G32C, U33A, A34C
B15: Id_iii_S2_P3E.7_K3.3_C3.3_[T-3A]_H3.3_A3.1_F3.1_T3.2 (ssRNA)
RNA: B1 RNA with U31A, G32C, U33A, A34C
B16: Id_iii_S2_P3E.7_K3.3_C3.3_[C-2G]_H3.3_A3.1_F3.1_T3.2 (ssRNA)
RNA: B1 RNA with A28U, C29G, U31A, G32C, U33A, A34C
B17: Id_iii_S2_P3E.7_K3.3_C3.3_[T-1G]_H3.3_A3.1_F3.1_T3.2 (ssRNA)
RNA: B1 RNA with A28U, U30G, U31A, G32C, U33A, A34C
B18: Id_iii_S2_P3E.7_K3.3_C3.3_[T-1C]_H3.3_A3.1_F3.1_T3.2 (ssRNA)
RNA: B1 RNA with A28U, U30C, U31A, G32C, U33A, A34C
B19: Id_iii_S2_P3E.7_K3.3_C3.3_H3.3_A3.1_F3.1_T3.2_[A10C] (ssRNA)
RNA: B1 RNA with A28U, U31A, G32C, U33A, A34C, A40C
B20: Id_iii_S2_P3E.8_K3.4_C3.3_[T-3C]_H3.1_A3.2_F3.1_T3.2 (ssRNA)
RNA: B1 RNA with A28C, U35A
B21: Id_iii_S2_P3E.8_K3.4_C3.3_[T-3A]_H3.1_A3.2_F3.1_T3.2 (ssRNA)
RNA: B1 RNA with U35A
B22: Id_iii_S2_P3E.8_K3.4_C3.3_[C-2A]_H3.1_A3.2_F3.1_T3.2 (ssRNA)
RNA: B1 RNA with A28U, C29A, U35A
B23: Id_iii_S2_P3E.9_K3.5_C3.3_[T-1G]_H3.1_A3.2_F3.2_T3.2 (ssRNA)
RNA: B1 RNA with A28U, U30G, U35A, U37A
B24: Id_iii_S2_P3E.9_K3.5_C3.3_[T-1C]_H3.1_A3.2_F3.2_T3.2 (ssRNA)
RNA: B1 RNA with A28U, U30C, U35A, U37A
B25: Id_iii_S2_P3E.9_K3.5_C3.3_[T-1A]_H3.1_A3.2_F3.2_T3.2 (ssRNA)
RNA: B1 RNA with A28U, U30A, U35A, U37A
B26: Id_iii_S2_P3E.9_K3.5_C3.3_H3.1_A3.2_F3.2_T3.2_[A10G] (ssRNA)
RNA: B1 RNA with A28U, U35A, U37A, A40G
B27: Id_iii_S2_P4E.5_K4.1_C4.3_[T-3C]_H4.1_A4.1_F4.1_T4.2 (ssRNA)
RNA: UUUGAUUAAUAUGAUAUCGUUCUUUCUCCUUGUAUAUUAGUUUCUUUCUCGAUAUCAUAUUAAUCUUU
B28: Id_iii_S2_P4E.5_K4.1_C4.3_[C-2G]_H4.1_A4.1_F4.1_T4.2 (ssRNA)
RNA: B27 RNA with C28U, C29G
B29: Id_iii_S2_P4E.5_K4.1_C4.3_[C-2T]_H4.1_A4.1_F4.1_T4.2 (ssRNA)
RNA: B27 RNA with C28U, C29U
B30: Id_iii_S2_P4E.5_K4.1_C4.3_[C-2A]_H4.1_A4.1_F4.1_T4.2 (ssRNA)
RNA: B27 RNA with C28U, C29A
B31: Id_iii_S2_P4E.5_K4.1_C4.3_[T-1G]_H4.1_A4.1_F4.1_T4.2 (ssRNA)
RNA: B27 RNA with C28U, U30G
B32: Id_iii_S2_P4E.5_K4.1_C4.3_[T-1C]_H4.1_A4.1_F4.1_T4.2 (ssRNA)
RNA: B27 RNA with C28U, U30C
B33: Id_iii_S2_P4E.5_K4.1_C4.3_H4.1_A4.1_F4.1_T4.2_[G10C] (ssRNA)
RNA: B27 RNA with C28U, G40C
B34: Id_iii_S2_P4E.5_K4.1_C4.3_H4.1_A4.1_F4.1_T4.2_[G10T] (ssRNA)
RNA: B27 RNA with C28U, G40U
B35: Id_iii_S2_P4E.5_K4.1_C4.3_H4.1_A4.1_F4.1_T4.2_[G10A] (ssRNA)
RNA: B27 RNA with C28U, G40A
B36: Id_iii_S2_P4E.5_K4.1_C4.3_H4.1_A4.1_F4.1_T4.2_[T11C] (ssRNA)
RNA: B27 RNA with C28U, U41C
B37: Id_iii_S2_P4E.6_K4.2_C4.3_[T-3C]_H4.2_A4.1_F4.1_T4.2 (ssRNA)
RNA: B27 RNA with G32A
B38: Id_iii_S2_P4E.6_K4.2_C4.3_[C-2G]_H4.2_A4.1_F4.1_T4.2 (ssRNA)
RNA: B27 RNA with C28U, C29G, G32A
B39: Id_iii_S2_P4E.6_K4.2_C4.3_[C-2T]_H4.2_A4.1_F4.1_T4.2 (ssRNA)
RNA: B27 RNA with C28U, C29U, G32A
B40: Id_iii_S2_P4E.6_K4.2_C4.3_[T-1G]_H4.2_A4.1_F4.1_T4.2 (ssRNA)
RNA: B27 RNA with C28U, U30G, G32A
B41: Id_iii_S2_P4E.6_K4.2_C4.3_[T-1A]_H4.2_A4.1_F4.1_T4.2 (ssRNA)
RNA: B27 RNA with C28U, U30A, G32A
B42: Id_iii_S2_P4E.6_K4.2_C4.3_H4.2_A4.1_F4.1_T4.2_[G10C] (ssRNA)
RNA: B27 RNA with C28U, G32A, G40C
B43: Id_iii_S2_P4E.6_K4.2_C4.3_H4.2_A4.1_F4.1_T4.2_[G10T] (ssRNA)
RNA: B27 RNA with C28U, G32A, G40U

Biological target: T1, PUF4 RNA-binding domain
Test: Mg; RNA-MaP; 20 mM Na-HEPES pH 7.4, 30 mM KOAc, 0.75 mM MgCl2, 0.1% Tween-20, 5% glycerol, 0.1 mg/mL BSA, 2 mM DTT; 25 C; 0.0125-409.6 nM protein
Conditions: tags: N-His6-TEV cleaved; C-SNAP kept, Cy3B-labelled; label: tethered on chip by stalled RNA polymerase

| Binder | Kd [µM] |
| --- | --- |
| UCUCUUCCUUGUAAUAUUAUAUCUCUU (ssRNA) [Id_iii_S1_P5E.8_K5.4_C5.3_[T-3C]_H5.1_A5.2_F5.1_T5.2] | 0.00843 |
| UCUCUUACUUGUAAUAUUAUAUCUCUU (ssRNA) [Id_iii_S1_P5E.8_K5.4_C5.3_[T-3A]_H5.1_A5.2_F5.1_T5.2] | 0.0137 |
| UCUCUUUAUUGUAAUAUUAUAUCUCUU (ssRNA) [Id_iii_S1_P5E.8_K5.4_C5.3_[C-2A]_H5.1_A5.2_F5.1_T5.2] | 0.00911 |
| UCUCUUUCCUGUAAUAUUAUAUCUCUU (ssRNA) [Id_iii_S1_P5E.8_K5.4_C5.3_[T-1C]_H5.1_A5.2_F5.1_T5.2] | 0.00732 |
| UCUCUUUCUUGUAAUAUUAAAUCUCUU (ssRNA) [Id_iii_S1_P5E.8_K5.4_C5.3_H5.1_A5.2_F5.1_T5.2_[T11A]] | 0.0113 |
| UCUCUUUGUCUUGUUAUCUCUU (ssRNA) [Ib_S1_P5E.1_K5.1_C5.1_H5.1_[A4C]_A5.1_[A7G]_F5.1_T5.1] | 0.475 |
| UCUCUUUCUUGUAAUAUUAUGUCUCUU (ssRNA) [Id_iii_S1_P5E.8_K5.4_C5.3_H5.1_A5.2_F5.1_T5.2_[A12G]] | 0.01 |
| UCUCUUUCUUGUAAUAUUAUCUCUCUU (ssRNA) [Id_iii_S1_P5E.8_K5.4_C5.3_H5.1_A5.2_F5.1_T5.2_[A12C]] | 0.00629 |
| UCUCUUUCUUGUAAUAUUAUUUCUCUU (ssRNA) [Id_iii_S1_P5E.8_K5.4_C5.3_H5.1_A5.2_F5.1_T5.2_[A12T]] | 0.00729 |
| UCUCUUUCUUGUAAUAAAAAAUCUCUU (ssRNA) [Id_iii_S1_P5E.9_K5.5_C5.3_H5.1_A5.2_F5.2_T5.2_[T11A]] | 0.412 |
| UCUCUUUCUUGUAAUAAAAUCUCUCUU (ssRNA) [Id_iii_S1_P5E.9_K5.5_C5.3_H5.1_A5.2_F5.2_T5.2_[A12C]] | 0.411 |
| B1 | 0.00118 |
| B2 | 0.00214 |
| B3 | 0.00152 |
| B4 | 0.0017 |
| B5 | 0.00353 |
| UCUCUUUGUCUUCUUAUCUCUU (ssRNA) [Ib_S1_P5E.1_K5.1_C5.1_H5.1_[A4C]_A5.1_[A7C]_F5.1_T5.1] | 1.09 |
| B6 | 0.00221 |
| B7 | 0.0912 |
| B8 | 0.111 |

| Binder | Kd [µM] |
| --- | --- |
| B9 | 0.0287 |
| B10 | 0.122 |
| B11 | 0.169 |
| B12 | 0.321 |
| B13 | 0.0435 |
| B14 | 0.156 |
| B15 | 0.213 |
| UCUCUUUGUCUUUUUAUCUCUU (ssRNA) [Ib_S1_P5E.1_K5.1_C5.1_H5.1_[A4C]_A5.1_[A7T]_F5.1_T5.1] | 0.113 |
| B16 | 0.000454 |
| B17 | 0.43 |
| B18 | 0.321 |
| B19 | 0.495 |
| B20 | 0.00254 |
| B21 | 0.00374 |
| B22 | 0.0263 |
| B23 | 0.0322 |
| B24 | 0.0119 |
| B25 | 0.0286 |
| UCUCUUUGUUUUGUUAUCUCUU (ssRNA) [Ib_S1_P5E.1_K5.1_C5.1_H5.1_[A4T]_A5.1_[A7G]_F5.1_T5.1] | 0.426 |
| B26 | 0.661 |

| Binder | Kd [µM] |
| --- | --- |
| B27 | 0.000191 |
| B28 | 0.000508 |
| B29 | 0.00108 |
| B30 | 0.000601 |
| B31 | 0.000201 |
| B32 | 0.000205 |
| B33 | 0.000519 |
| B34 | 0.000203 |
| B35 | 0.00037 |
| UCUCUUUGUUUUUUUAUCUCUU (ssRNA) [Ib_S1_P5E.1_K5.1_C5.1_H5.1_[A4T]_A5.1_[A7T]_F5.1_T5.1] | 0.142 |
| B36 | 0.000401 |
| B37 | 0.00356 |
| B38 | 0.0133 |
| B39 | 0.0202 |
| B40 | 0.0109 |
| B41 | 0.00683 |
| B42 | 0.00527 |
| B43 | 0.00384 |
